Measured values reported in paper PMC5494301, “Functions of tryptophan residues in EWGWS insert of Plasmodium falciparum enolase” (FEBS Open Bio, 2017).
Numbering of substitutions follows the chain as printed.

How the values were obtained:
[1] = biological target: GST‐tagged W105,107K variant of recombinant P. falciparum enolase (not stated | Plasmodium falciparum)
[2] = biological target: GST‐tagged W105,107K variant of recombinant P. falciparum enolase (not stated | Plasmodium falciparum); experiment: SEC; proteins with the GST tag; Superdex‐200 Increase 10/300 GL, 1 mg protein in 0.5 mL buffer; 50 mM Tris‐HCl, 150 mM NaCl, 5 mM MgCl2 pH 7.5
[3] = biological target: GST‐tagged W105,107A variant of recombinant P. falciparum enolase (not stated | Plasmodium falciparum)
[4] = biological target: GST‐tagged W105,107A variant of recombinant P. falciparum enolase (not stated | Plasmodium falciparum); experiment: SEC; proteins with the GST tag; Superdex‐200 Increase 10/300 GL, 1 mg protein in 0.5 mL buffer; 50 mM Tris‐HCl, 150 mM NaCl, 5 mM MgCl2 pH 7.5
[5] = biological target: the molecule itself; experiment: cell-based or functional assay
[6] = biological target: the molecule itself; experiment: SEC; proteins without the GST tag; Superdex‐200 HiLoad 16/600, 1–2 mg of protein in 2 mL buffer; 50 mM Tris‐HCl, 150 mM NaCl, 5 mM MgCl2 pH 7.5; dimer to monomers

Molecule: GST‐tagged W105,107K variant of recombinant P. falciparum enolase (enzyme)
- enolase activity, V max (% of GST‐rPfeno) (% of GST‐rPfeno) [1]: 33
- stoichiometry N [2]: 2

Molecule: GST‐tagged W105,107A variant of recombinant P. falciparum enolase (enzyme)
- enolase activity, V max (% of GST‐rPfeno) (% of GST‐rPfeno) [3]: 22
- stoichiometry N [4]: 2

B1: W105,107A variant of recombinant P. falciparum enolase, GST tag removed (enzyme, Plasmodium falciparum, UniProt Q27727 1-446, looked up)
chain: MAHVITRINAREILDSRGNPTVEVDLETNLGIFRAAVPSGASTGIYEALELRDNDKSRYLGKGVQKAIKNINEIIAPKLIGMNCTEQKKIDNLMVEELDGSKNEAGASKSKLGANAILAISMAVCRAGAAPNKVSLYKYLAQLAGKKSDQMVLPVPCLNVINGGSHAGNKLSFQEFMIVPVGAPSFKEALRYGAEVYHTLKSEIKKKYGIDATNVGDEGGFAPNILNANEALDLLVTAIKSAGYEGKVKIAMDVAASEFYNSENKTYDLDFKTPNNDKSLVKTGAQLVDLYIDLVKKYPIVSIEDPFDQDDWENYAKLTAAIGKDVQIVGDDLLVTNPTRITKALEKNACNALLLKVNQIGSITEAIEACLLSQKNNWGVMVSHRSGETEDVFIADLVVALRTGQIKTGAPCRSERNAKYNQLLRIEESLGNNAVFAGEKFRLQLN
- enolase activity, V max (% WT rPfeno) [5]: 4 % of WT‐rPfeno

B2: recombinant P. falciparum enolase, wild type (WT‐rPfeno), GST tag removed (enzyme, Plasmodium falciparum, UniProt Q27727 1-446, looked up)
chain: B1 chain with A105W, A107W
notes: Plasmodium falciparum enolase (Pfeno), UniProt Q27727, 446 amino acids; also called Plasmodium falciparum enolase; source: E. coli BL21 (DE3), pGEX4T1, purified on glutathione Sepharose, GST tag cut off with thrombin
- stoichiometry N [6]: 2
